Experimental data taken from patent publication US12642766B2, “EDB-FN as biomarker of cancer and/or brain disease and nanodrug delivery system targeting same” (KOREA UNIVERSITY RESEARCH AND BUSINESS FOUNDATION, priority 2020, dated 2026).
Ends that are not written are not given here.

Columns and labels:
[1] = molecular target: EDB-FN (Homo sapiens, UniProt P02751); details: read-out: affinity of binding to EDB-FN; cited from earlier work
[2] = tested on: EDB-FN; assay: siRNA-mediated EDB-FN knockdown confirmed by qRT-PCR; assay type: cell-based, human; details: U87MG cells; GAPDH internal control; control siRNA 1.00±0.08
Protocol: Cells were collected, and ribonucleic acid (RNA) was extracted with RiboEx using an RNA isolation kit (GeneAll, Seoul, Republic of Korea). Complementary DNA (cDNA) was synthesized by reverse transcription using a total of 1 μg of RNA from each sample. As a result, the following genes were estimated: EDB-FN gene (forward primer: 5′-[…]-3′; reverse primer: 5′-[…]-3′); glyceraldehyde 3-phosphate dehydrogenase) gene (forward primer: 5′-[…]-3′; reverse primer: 5′-[…]-3′. The polymerase chain reaction protocol was as follows: initial denaturation at 94° C. for 5 min; 30 repetitions of denaturation at 94° C. for 1 min, primer annealing at 55° C. for 1 min, and extension at 72° C. for 2 min; and final extension at 72° C. for 7 min 1 μg of cDNA was added to 4 μL of ultrapure water, 5 μL of SYBR Green real-time mixture (Takara, Tokyo, Japan) was added before performing a real-time polymerase chain reaction (Qiagen, Tokyo, Japan). The messenger RNA (mRNA) level of each gene was quantified using the 2^−ΔΔ^Ct method and normalized with the messenger RNA of glyceraldehyde 3-phosphate dehydrogenase.
EDB-FN-specific siRNA and scrambled control siRNA were purchased from Bioneer (Daejeon, Republic of Korea). The target sequence of EDB-FN siRNA used for RNA interference is as follows: sense; […], antisense; […]. […] Transfection efficacy was analyzed after 48 hours.

Sequence of EDB-FN (Homo sapiens, UniProt P02751) (P02751 32-2477): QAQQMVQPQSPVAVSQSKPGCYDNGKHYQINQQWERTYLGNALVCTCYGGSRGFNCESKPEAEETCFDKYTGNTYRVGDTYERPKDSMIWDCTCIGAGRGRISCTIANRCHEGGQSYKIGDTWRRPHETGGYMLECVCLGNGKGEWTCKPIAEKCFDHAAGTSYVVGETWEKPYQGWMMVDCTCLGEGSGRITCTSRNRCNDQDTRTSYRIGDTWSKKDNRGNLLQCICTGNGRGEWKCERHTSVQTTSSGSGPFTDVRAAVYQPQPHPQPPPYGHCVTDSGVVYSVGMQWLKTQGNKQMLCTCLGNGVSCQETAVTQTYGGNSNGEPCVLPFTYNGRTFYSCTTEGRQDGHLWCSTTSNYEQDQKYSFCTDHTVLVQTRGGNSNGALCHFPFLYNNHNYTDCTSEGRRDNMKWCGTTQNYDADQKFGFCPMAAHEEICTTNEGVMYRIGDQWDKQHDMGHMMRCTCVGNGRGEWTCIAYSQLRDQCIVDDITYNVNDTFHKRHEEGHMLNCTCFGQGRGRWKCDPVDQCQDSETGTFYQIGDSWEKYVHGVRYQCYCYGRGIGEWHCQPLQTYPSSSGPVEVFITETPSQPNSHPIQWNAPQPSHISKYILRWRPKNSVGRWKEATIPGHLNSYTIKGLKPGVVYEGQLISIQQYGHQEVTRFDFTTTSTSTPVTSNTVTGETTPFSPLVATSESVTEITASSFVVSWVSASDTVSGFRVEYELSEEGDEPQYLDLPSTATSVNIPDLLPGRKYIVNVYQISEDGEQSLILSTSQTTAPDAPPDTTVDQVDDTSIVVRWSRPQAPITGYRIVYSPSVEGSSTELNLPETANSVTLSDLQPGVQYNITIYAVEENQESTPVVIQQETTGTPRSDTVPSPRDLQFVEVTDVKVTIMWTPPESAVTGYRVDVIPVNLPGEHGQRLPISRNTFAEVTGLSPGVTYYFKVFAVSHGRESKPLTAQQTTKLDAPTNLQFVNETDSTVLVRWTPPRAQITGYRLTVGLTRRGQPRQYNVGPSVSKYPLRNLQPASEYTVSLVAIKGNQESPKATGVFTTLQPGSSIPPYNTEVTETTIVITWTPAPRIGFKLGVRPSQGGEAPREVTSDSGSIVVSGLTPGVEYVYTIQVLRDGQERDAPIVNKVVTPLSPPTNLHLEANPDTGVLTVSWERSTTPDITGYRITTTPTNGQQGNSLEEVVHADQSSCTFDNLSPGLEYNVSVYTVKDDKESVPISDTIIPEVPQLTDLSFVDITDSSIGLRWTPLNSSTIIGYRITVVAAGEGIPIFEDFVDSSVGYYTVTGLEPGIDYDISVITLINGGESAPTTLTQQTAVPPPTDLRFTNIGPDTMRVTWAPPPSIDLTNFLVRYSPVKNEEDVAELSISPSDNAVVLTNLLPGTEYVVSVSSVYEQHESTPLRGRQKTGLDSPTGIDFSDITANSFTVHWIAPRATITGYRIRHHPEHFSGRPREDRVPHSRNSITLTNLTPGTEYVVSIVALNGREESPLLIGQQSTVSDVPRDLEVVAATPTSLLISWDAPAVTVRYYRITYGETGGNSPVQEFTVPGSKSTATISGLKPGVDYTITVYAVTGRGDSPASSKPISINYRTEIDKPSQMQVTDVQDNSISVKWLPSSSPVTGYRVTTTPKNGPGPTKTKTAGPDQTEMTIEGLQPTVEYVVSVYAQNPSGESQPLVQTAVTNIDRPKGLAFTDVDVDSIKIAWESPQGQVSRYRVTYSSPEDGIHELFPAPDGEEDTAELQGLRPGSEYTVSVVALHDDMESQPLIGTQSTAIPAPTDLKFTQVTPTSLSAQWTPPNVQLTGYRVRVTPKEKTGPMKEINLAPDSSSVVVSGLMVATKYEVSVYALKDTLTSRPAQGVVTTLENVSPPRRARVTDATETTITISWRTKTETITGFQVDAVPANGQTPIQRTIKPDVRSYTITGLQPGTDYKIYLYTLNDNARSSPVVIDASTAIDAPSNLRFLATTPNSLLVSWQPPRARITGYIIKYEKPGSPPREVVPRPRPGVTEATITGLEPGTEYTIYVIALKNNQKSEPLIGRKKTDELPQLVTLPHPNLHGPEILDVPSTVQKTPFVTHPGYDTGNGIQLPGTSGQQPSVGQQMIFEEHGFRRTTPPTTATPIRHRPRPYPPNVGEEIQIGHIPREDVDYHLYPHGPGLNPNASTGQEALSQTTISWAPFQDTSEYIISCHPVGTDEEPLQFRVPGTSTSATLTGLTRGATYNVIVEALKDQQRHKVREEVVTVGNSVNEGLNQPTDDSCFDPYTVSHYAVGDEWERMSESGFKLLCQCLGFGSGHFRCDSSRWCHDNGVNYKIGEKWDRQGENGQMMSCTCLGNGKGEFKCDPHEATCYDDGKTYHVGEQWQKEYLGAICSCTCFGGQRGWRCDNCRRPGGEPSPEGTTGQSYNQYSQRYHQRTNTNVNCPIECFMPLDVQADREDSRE

| Substance | Kd [1] [nM] | EDB-FN expression (qRT-PCR) [2] |
| --- | --- | --- |
| N′-CSSPIQGSWTWENGK(C)WTWGIIRLEQ-C′ (CSSPIQGSWTWENGK(Cys)WTWGIIRLEQ; listed as Homo sapiens) [APTEDB, EDB-FN-specific aptamer-like peptide (aptide)] | < 100 | – |
| EDB-FN siRNA: EDB-FN-specific siRNA; sense ACAGUCCCAGAUCAUGGAG, antisense CUCCAUGAUCUGGGACUGU (chemistry not given here) | – | 0.45±0.01 |
